The record followed here is publication PMC4427200 (Acta Crystallographica Section D: Biological Crystallography, 2015).

Data set [1] addresses T1, SaBADH (Staphylococcus aureus, UniProt A0A0H2X0S3).
T1 construct: gene betB; pMCSG7 tagged protein (Ni-NTA), E. coli BL21(DE3)/pMAGIC; tetramer/dimer; G234S cloned in p15TV-LIC
T1 sequence (A0A0H2X0S3 1-496): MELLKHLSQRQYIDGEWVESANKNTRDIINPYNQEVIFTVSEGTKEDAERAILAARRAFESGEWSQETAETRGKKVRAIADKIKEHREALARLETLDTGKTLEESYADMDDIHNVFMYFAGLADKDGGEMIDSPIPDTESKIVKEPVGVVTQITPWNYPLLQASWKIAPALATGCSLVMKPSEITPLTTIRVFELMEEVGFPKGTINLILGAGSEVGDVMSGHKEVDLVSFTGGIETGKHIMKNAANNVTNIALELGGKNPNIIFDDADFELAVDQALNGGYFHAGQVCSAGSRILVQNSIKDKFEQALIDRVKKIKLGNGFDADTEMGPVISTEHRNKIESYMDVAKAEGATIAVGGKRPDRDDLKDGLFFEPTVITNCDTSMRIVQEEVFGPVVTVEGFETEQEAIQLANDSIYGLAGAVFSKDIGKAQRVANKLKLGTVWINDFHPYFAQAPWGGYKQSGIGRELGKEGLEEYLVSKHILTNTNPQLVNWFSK
Briefly: SPR, immobilized SaBADH. The format is binding. The following applies: 2 mM ADP, pH 5.0-8.0, 298 K, two-day-old surface.

Data set [2] deals with T1, SaBADH. Put plainly: SPR, immobilized SaBADH(BME+). The format is binding. Background: SPR reads the build-up and loss of mass on a sensor chip optically.
Another data set concerns the target T2, AroD (Salmonella enterica, UniProt P58687).
T2 construct: source cited as Light et al., 2013; used as SPR control protein
T2 sequence (P58687 1-252): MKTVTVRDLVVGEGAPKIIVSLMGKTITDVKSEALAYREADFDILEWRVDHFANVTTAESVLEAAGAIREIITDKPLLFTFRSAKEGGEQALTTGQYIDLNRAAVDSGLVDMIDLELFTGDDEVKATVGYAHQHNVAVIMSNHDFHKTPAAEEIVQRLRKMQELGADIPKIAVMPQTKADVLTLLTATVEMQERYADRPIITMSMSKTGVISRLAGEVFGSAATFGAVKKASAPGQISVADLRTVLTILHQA
Briefly: SPR, single binding isotherm fitting. The text has this:
SPR, single binding isotherm fitting on AroD | each of the proteins selectively responded to its natural ligand, NADH and DQA, respectively

Data set [3] deals with betaine aldehyde dehydrogenase SACOL2628 from Staphylococcus aureus COL (SaBADH), wild type (Staphylococcus aureus COL). Briefly: dynamic light scattering; SaBADH^BME(−) 10-100 uM in 10 mM Tris-HCl pH 8.3, 0.5 mM TCEP, no added salt, 298 K.
Data set [4] has the same target. Put plainly: dynamic light scattering; SaBADH^BME(−) 10-100 uM in 10 mM Tris-HCl pH 8.3, 0.5 mM TCEP, with 0.5-2.5 M KCl, 298 K.
Data set [5] has the same target. Briefly: dynamic light scattering; SaBADH^BME(−) 10-100 uM in 10 mM Tris-HCl pH 8.3, 0.5 mM TCEP, with 0.5-2.5 M NaCl, 298 K.
For data set [6] the target is unchanged. Briefly: SEC-MALS; SaBADH^BME(+) 2 mg/ml on Superdex 200 10/300 GL in 10 mM Tris-HCl pH 8.3, 500 mM NaCl, 5 mM BME, 295 K.
Data set [7] shares this target. Put plainly: crystal structure; X-ray structures of apo and NAD-bound forms, with and without BME; sitting-drop vapor diffusion at 295 K; assemblies analysed with PISA.
In data set [8] the target is T1, SaBADH. Briefly: NADH absorbance at […] nm. The format is biochemical. As to conditions: substrate inhibition; co-substrate NAD+; 100 mM potassium phosphate pH 8.0, 303 K.
Data set [9] concerns the target Gly234Ser mutant of SaBADH (G234S-SaBADH) (Staphylococcus aureus COL). Briefly: crystal structure; X-ray structures of apo and NAD-bound forms, with and without BME; sitting-drop vapor diffusion at 295 K; assemblies analysed with PISA.
Substrate in data set [10]: NC(=O)c1ccc[n+]([C@@H]2O[C@H](COP(=O)(O)OP(=O)(O)OC[C@H]3O[C@@H](n4cnc5c(N)ncnc54)[C@H](O)[C@@H]3O)[C@@H](O)[C@H]2O)c1
Briefly: purified protein. As to conditions: co-substrate betaine aldehyde, 100 mM potassium phosphate pH 8.0, 303 K, 30.0 °C, varied: cofactor.

Substrate in data set [11]: NC(=O)c1ccc[n+]([C@@H]2O[C@H](COP(=O)(O)OP(=O)(O)OC[C@H]3O[C@@H](n4cnc5c(N)ncnc54)[C@H](OP(=O)(O)O)[C@@H]3O)[C@@H](O)[C@H]2O)c1
Put plainly: purified protein. As to conditions: co-substrate betaine aldehyde, 100 mM potassium phosphate pH 8.0, 303 K, 30.0 °C, varied: cofactor.

Regarding `Nc1ncnc2c1ncn2[C@@H]1O[C@H](COP(=O)(O)OP(=O)(O)O)[C@@H](O)[C@H]1O` [ADP], the “SPR, immobilized SaBADH” value at SaBADH [1] was “An acidic pH favored the ADP–SaBADH interaction”.

As for `NC(=O)C1=CN([C@@H]2O[C@H](COP(=O)(O)OP(=O)(O)OC[C@H]3O[C@@H](n4cnc5c(N)ncnc54)[C@H](O)[C@@H]3O)[C@@H](O)[C@H]2O)C=CC1` [NADH], binding at SaBADH [2] was characterised by a dissociation constant (Kd) of 4.5 µM.

As to `O=C1C[C@@](O)(C(=O)O)C[C@@H](O)[C@@H]1O` [3-dehydroquinic acid], the Kd at AroD amounted to 244 µM.

For the molecule “betaine aldehyde dehydrogenase SACOL2628 from Staphylococcus aureus COL (SaBADH), wild type (enzyme)”, the stoichiometry N is 2 in data set [3]; 2 in data set [4]; 4 in data set [5]; 4 in data set [6]; 4 in data set [7].

Take `C[N+](C)(C)CC=O` [betaine aldehyde]: the Betaine aldehyde on SaBADH [8] came out at 0.34 ± 0.06 mM.

In turn, “Gly234Ser mutant of SaBADH (G234S-SaBADH) (enzyme)” yielded a stoichiometry N in data set [9] of 4.

In the case of `NC(=O)c1ccc[n+]([C@@H]2O[C@H](COP(=O)(O)OP(=O)(O)OC[C@H]3O[C@@H](n4cnc5c(N)ncnc54)[C@H](O)[C@@H]3O)[C@@H](O)[C@H]2O)c1` [NAD^+], on SaBADH [2], the Kd is 19.3 µM.

B1: SaBADH (Staphylococcus aureus subsp. aureus COL) (protein)
chain: MELLKHLSQRQYIDGEWVESANKNTRDIINPYNQEVIFTVSEGTKEDAERAILAARRAFESGEWSQETAETRGKKVRAIADKIKEHREALARLETLDTGKTLEESYADMDDIHNVFMYFAGLADKDGGEMIDSPIPDTESKIVKEPVGVVTQITPWNYPLLQASWKIAPALATGCSLVMKPSEITPLTTIRVFELMEEVGFPKGTINLILGAGSEVGDVMSGHKEVDLVSFTGGIETGKHIMKNAANNVTNIALELGGKNPNIIFDDADFELAVDQALNGGYFHAGQVCSAGSRILVQNSIKDKFEQALIDRVKKIKLGNGFDADTEMGPVISTEHRNKIESYMDVAKAEGATIAVGGKRPDRDDLKDGLFFEPTVITNCDTSMRIVQEEVFGPVVTVEGFETEQEAIQLANDSIYGLAGAVFSKDIGKAQRVANKLKLGTVWINDFHPYFAQAPWGGYKQSGIGRELGKEGLEEYLVSKHILTNTNPQLVNWFSK
Take B1: the figures for the Km in “purified protein [10]” and in the data set “purified protein [11]” were 430 ± 30 µM and 2260 ± 350 µM, respectively.

As usually defined, the Kd is the constant that tells how readily two partners part at equilibrium. A higher Kd goes with lower affinity. A word on the stoichiometry N: it is a count of units in the complex or per binding partner. One may read the Km as the concentration of substrate that gives half-maximal velocity.
